Tests used:
[1] = biological target: GST-EhPKDL (Entamoeba histolytica Protein kinase D like kinase, recombinant) (Entamoeba histolytica); assay: SEC
[2] = biological target: EhPKDL-FITC (Entamoeba histolytica); assay: other fluorescence titration

Substance	stoichiometry N [1]	stoichiometry N [2]
GST-EhPKDL (Entamoeba histolytica Protein kinase D like kinase, recombinant) (enzyme)	2	
actin-TRITC (natural protein)		1 molar ratio

Reference: article doi:10.1101/677500
